In patent publication US12060424 (AMUNIX PHARMACEUTICALS, dated 2024):
Each block holds one binder with its values, some of them ahead of it.

What was measured:
[1] = biological target: recombinant human CD3 epsilon & delta (rhCD3ε & δ), Creative BioMart cat #CD3E&CD3D-219H (human) (UniProt P07766); assay: SPR (Biacore 3000), His-tagged CD3εδ coupled to chip, ProTIA as analyte at 5-6 concentrations
[2] = biological target: T1, recombinant human EpCAM (rhEpCAM), coated on ELISA plate (human, UniProt P16422 24-265); assay: sandwich ELISA: rhEpCAM coated, peroxidase-conjugated protein L detection
T1 construct: Bought reagent
T1 sequence (looked up): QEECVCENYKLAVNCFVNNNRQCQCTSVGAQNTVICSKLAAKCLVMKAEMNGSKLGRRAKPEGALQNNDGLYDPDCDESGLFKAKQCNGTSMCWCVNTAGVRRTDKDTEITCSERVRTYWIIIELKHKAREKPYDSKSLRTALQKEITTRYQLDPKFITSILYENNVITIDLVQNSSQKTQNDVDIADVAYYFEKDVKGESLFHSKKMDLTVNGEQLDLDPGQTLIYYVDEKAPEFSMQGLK

[3] = biological target: recombinant human CD3 epsilon & delta (rhCD3ε & δ), Creative BioMart cat #CD3E&CD3D-219H (human) (UniProt P07766); assay: sandwich ELISA: rhCD3ε & δ coated, peroxidase-conjugated protein L detection
[4] = biological target: T2, Fc-tagged EpCAM (R&D Systems, cat #960-EP-050), human, coupled to SPR chip (human, UniProt P16422 24-265); assay: SPR (Biacore 3000), Fc-tagged EpCAM coupled to chip, ProTIA as analyte at 5-6 concentrations
T2 construct: Bought reagent; also called human EpCAM; EpCAM chip; not shown: Fc tag of the bought reagent
T2 sequence (looked up): T1 sequence (looked up)

[5] = biological target: T3, human EpCAM expressed on cells (CHO cells stably transfected with human EpCAM); EpCAM-positive human tumor … (human, UniProt P16422 24-314); assay: cell-based or functional assay
T3 sequence (looked up): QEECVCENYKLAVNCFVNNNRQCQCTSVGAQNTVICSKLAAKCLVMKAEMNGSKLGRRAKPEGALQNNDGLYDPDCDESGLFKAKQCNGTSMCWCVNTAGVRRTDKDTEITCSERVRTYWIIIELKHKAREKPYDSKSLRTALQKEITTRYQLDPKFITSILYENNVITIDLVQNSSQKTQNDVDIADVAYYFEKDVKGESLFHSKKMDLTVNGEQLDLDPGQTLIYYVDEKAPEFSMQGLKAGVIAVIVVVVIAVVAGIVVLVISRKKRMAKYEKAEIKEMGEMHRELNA

[6] = biological target: recombinant human CD3 epsilon & delta (rhCD3ε & δ), Creative BioMart cat #CD3E&CD3D-219H (human) (UniProt P07766); assay: sandwich ELISA: rhCD3ε & δ coated, biotinylated anti-XTEN antibody detection
[7] = biological target: human CD3 on cells (CD3+ Jurkat cells; purified human CD3 positive T cells) (human, UniProt P07766 23-207); assay: cell-based or functional assay
human CD3 on cells (CD3+ Jurkat cells; purified human CD3 positive T cells), sequence (P07766 23-207): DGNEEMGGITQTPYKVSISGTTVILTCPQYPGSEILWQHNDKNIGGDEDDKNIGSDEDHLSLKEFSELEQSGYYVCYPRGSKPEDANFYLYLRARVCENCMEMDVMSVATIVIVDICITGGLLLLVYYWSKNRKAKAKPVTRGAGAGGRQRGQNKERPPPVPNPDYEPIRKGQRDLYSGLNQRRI

recombinant human CD3 epsilon & delta (rhCD3ε & δ), Creative BioMart cat #CD3E&CD3D-219H (human), sequence (P07766 23-126, stated change not applied, chain 1 of 2): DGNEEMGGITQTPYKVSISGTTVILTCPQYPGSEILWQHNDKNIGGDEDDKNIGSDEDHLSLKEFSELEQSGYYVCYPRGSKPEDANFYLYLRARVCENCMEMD
recombinant human CD3 epsilon & delta (rhCD3ε & δ), Creative BioMart cat #CD3E&CD3D-219H (human), sequence (P04234 22-105, stated change not applied, chain 2 of 2, further chain): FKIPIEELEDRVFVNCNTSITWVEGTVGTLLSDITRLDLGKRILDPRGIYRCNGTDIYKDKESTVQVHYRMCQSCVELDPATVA

Kd [1]: 27.8 nM
EC50 [2]: 0.32 nM
EC50 [3]: 2.2 nM
Kd [4]: 10 nM
EC50 [6]: 0.027 µg/mL
B1: AC1484 non-cleavable anti-EpCAM×anti-CD3 ProTIA (ProTIA without the release segment cleavage sequence) (bispecific antibody)
chain: DIQMTQSPSSLSASVGDRVTITCRSTKSLLHSNGITYLYWYQQKPGKAPKLLIYQMSNLASGVPSRFSSSGSGTDFTLTISSLQPEDFATYYCAQNLEIPRTFGQGTKVEIKGATPPETGAETESPGETTGGSAESEPPGEGQVQLVQSGPGLVQPGGSVRISCAASGYTFTNYGMNWVKQAPGKGLEWMGWINTYTGESTYADSFKGRFTFSLDTSASAAYLQINSLRAEDTAVYYCARFAIKGDYWGQGTLLTVSSGGGGSDIQMTQSPSSLSASVGDRVTITCRASQDIRNYLNWYQQKPGKAPKLLIYYTSRLESGVPSRFSGSGSGTDYTLTISSLQPEDFATYYCQQGNTLPWTFGQGTKVEIKGATPPETGAETESPGETTGGSAESEPPGEGEVQLVESGGGLVQPGGSLRLSCAASGYSFTGYTMNWVRQAPGKGLEWVALINPYKGVSTYNQKFKDRFTISVDKSKNTAYLQMNSLRAEDTAVYYCARSGYYGDSDWYFDVWGQGTLVTVSSGSPGSPAGSPTSTEEGTSESATPESGPGTSTEPSEGSAPGSPAGSPTSTEEGTSTEPSEGSAPGTSTEPSEGSAPGTSESATPESGPGSEPATSGSETPGSEPATSGSETPGSPAGSPTSTEEGTSESATPESGPGTSTEPSEGSAPGTSTEPSEGSAPGSPAGSPTSTEEGTSTEPSEGSAPGTSTEPSEGSAPGTSESATPESGPGTSTEPSEGSAPGTSESATPESGPGSEPATSGSETPGTSTEPSEGSAPGTSTEPSEGSAPGTSESATPESGPGTSESATPESGPGSPAGSPTSTEEGTSESATPESGPGSEPATSGSETPGTSESATPESGPGTSTEPSEGSAPGTSTEPSEGSAPGTSTEPSEGSAPGTSTEPSEGSAPGTSTEPSEGSAPGTSTEPSEGSAPGSPAGSPTSTEEGTSTEPSEGSAPGTSESATPESGPGSEPATSGSETPGTSESATPESGPGSEPATSGSETPGTSESATPESGPGTSTEPSEGSAPGTSESATPESGPGSPAGSPTSTEEGSPAGSPTSTEEGSPAGSPTSTEEGTSESATPESGPGTSTEPSEGSAPGTSESATPESGPGSEPATSGSETPGTSESATPESGPGSEPATSGSETPGTSESATPESGPGTSTEPSEGSAPGSPAGSPTSTEEGTSESATPESGPGSEPATSGSETPGTSESATPESGPGSPAGSPTSTEEGSPAGSPTSTEEGTSTEPSEGSAPGTSESATPESGPGTSESATPESGPGTSESATPESGPGSEPATSGSETPGSEPATSGSETPGSPAGSPTSTEEGTSTEPSEGSAPGTSTEPSEGSAPGSEPATSGSETPGTSESATPESGPGTSTEPSEGSAPGHHHHHH
notes: Single chain: anti-EpCAM scFv, anti-CD3 scFv, XTEN864, His6, no release segment; also called non-cleavable ProTIA; protease-non-cleavable anti-EpCAM×anti-CD3 ProTIA
EC50 (pM), caspase 3/7 cytotoxicity, PBMC with HCT-116 cells 10:1 [5]: 1270 pM
EC50 (pM), caspase 3/7 cytotoxicity, PBMC with HPAF-II cells 10:1 [5]: 1170 pM
EC50 (pM), caspase 3/7 cytotoxicity, PBMC with MDA-MB-231 cells 10:1 [5]: 10200 pM
EC50, LDH release cytotoxicity, purified human CD3 positive T cells with OVCAR-3 cells 5:1 [7]: 0.086 nM
EC50, LDH release cytotoxicity, purified human CD3 positive T cells with SK-OV-3 cells 5:1 [7]: 2.66 nM

EC50 [6]: 0.009 µg/mL
fold more active binding than the non-cleavable AC1484 [6]: 3 fold
B2: AC1693 protease-untreated anti-EpCAM×anti-CD3 ProTIA (bispecific antibody)
chain: DIQMTQSPSSLSASVGDRVTITCRSTKSLLHSNGITYLYWYQQKPGKAPKLLIYQMSNLASGVPSRFSSSGSGTDFTLTISSLQPEDFATYYCAQNLEIPRTFGQGTKVEIKGATPPETGAETESPGETTGGSAESEPPGEGQVQLVQSGPGLVQPGGSVRISCAASGYTFTNYGMNWVKQAPGKGLEWMGWINTYTGESTYADSFKGRFTFSLDTSASAAYLQINSLRAEDTAVYYCARFAIKGDYWGQGTLLTVSSGGGGSDIQMTQSPSSLSASVGDRVTITCRASQDIRNYLNWYQQKPGKAPKLLIYYTSRLESGVPSRFSGSGSGTDYTLTISSLQPEDFATYYCQQGNTLPWTFGQGTKVEIKGATPPETGAETESPGETTGGSAESEPPGEGEVQLVESGGGLVQPGGSLRLSCAASGYSFTGYTMNWVRQAPGKGLEWVALINPYKGVSTYNQKFKDRFTISVDKSKNTAYLQMNSLRAEDTAVYYCARSGYYGDSDWYFDVWGQGTLVTVSSGTAEAASASGESGRAANHTGAPPGGLTGPPGSPAGSPTSTEEGTSESATPESGPGTSTEPSEGSAPGSPAGSPTSTEEGTSTEPSEGSAPGTSTEPSEGSAPGTSESATPESGPGSEPATSGSETPGSEPATSGSETPGSPAGSPTSTEEGTSESATPESGPGTSTEPSEGSAPGTSTEPSEGSAPGSPAGSPTSTEEGTSTEPSEGSAPGTSTEPSEGSAPGTSESATPESGPGTSTEPSEGSAPGTSESATPESGPGSEPATSGSETPGTSTEPSEGSAPGTSTEPSEGSAPGTSESATPESGPGTSESATPESGPGSPAGSPTSTEEGTSESATPESGPGSEPATSGSETPGTSESATPESGPGTSTEPSEGSAPGTSTEPSEGSAPGTSTEPSEGSAPGTSTEPSEGSAPGTSTEPSEGSAPGTSTEPSEGSAPGSPAGSPTSTEEGTSTEPSEGSAPGTSESATPESGPGSEPATSGSETPGTSESATPESGPGSEPATSGSETPGTSESATPESGPGTSTEPSEGSAPGTSESATPESGPGSPAGSPTSTEEGSPAGSPTSTEEGSPAGSPTSTEEGTSESATPESGPGTSTEPSEGSAPGTSESATPESGPGSEPATSGSETPGTSESATPESGPGSEPATSGSETPGTSESATPESGPGTSTEPSEGSAPGSPAGSPTSTEEGTSESATPESGPGSEPATSGSETPGTSESATPESGPGSPAGSPTSTEEGSPAGSPTSTEEGTSTEPSEGSAPGTSESATPESGPGTSESATPESGPGTSESATPESGPGSEPATSGSETPGSEPATSGSETPGSPAGSPTSTEEGTSTEPSEGSAPGTSTEPSEGSAPGSEPATSGSETPGTSESATPESGPGTSTEPSEGSAPGHHHHHH
EC50 (pM), caspase 3/7 cytotoxicity, PBMC with HCT-116 cells 10:1 [5]: 21 pM
EC50 (pM), caspase 3/7 cytotoxicity, PBMC with HPAF-II cells 10:1 [5]: 12 pM
EC50 (pM), caspase 3/7 cytotoxicity, PBMC with MDA-MB-231 cells 10:1 [5]: 3480 pM

Kd [1]: 15.3 nM
EC50 [2]: 0.28 nM
fold hindrance of binding by XTEN864 (against the protease-treated ProTIA) [2]: ≥ 2.3 fold
EC50 [3]: 1.8 nM
fold hindrance of binding by XTEN864 (against the cleaved and released anti-CD3scFv portion) [3]: 5.8 fold
Kd [4]: 11.4 nM
B3: AC1476 aEpCAM-aCD3-BSRS1-XTEN_AE864-His(6), protease-untreated (uncleaved) anti-EpCAM×anti-CD3 ProTIA (bispecific antibody)
chain: DIQMTQSPSSLSASVGDRVTITCRSTKSLLHSNGITYLYWYQQKPGKAPKLLIYQMSNLASGVPSRFSSSGSGTDFTLTISSLQPEDFATYYCAQNLEIPRTFGQGTKVEIKGATPPETGAETESPGETTGGSAESEPPGEGQVQLVQSGPGLVQPGGSVRISCAASGYTFTNYGMNWVKQAPGKGLEWMGWINTYTGESTYADSFKGRFTFSLDTSASAAYLQINSLRAEDTAVYYCARFAIKGDYWGQGTLLTVSSGGGGSDIQMTQSPSSLSASVGDRVTITCRASQDIRNYLNWYQQKPGKAPKLLIYYTSRLESGVPSRFSGSGSGTDYTLTISSLQPEDFATYYCQQGNTLPWTFGQGTKVEIKGATPPETGAETESPGETTGGSAESEPPGEGEVQLVESGGGLVQPGGSLRLSCAASGYSFTGYTMNWVRQAPGKGLEWVALINPYKGVSTYNQKFKDRFTISVDKSKNTAYLQMNSLRAEDTAVYYCARSGYYGDSDWYFDVWGQGTLVTVSSGTAEAASASGLSGRSDNHSPLGLAGSPGSPAGSPTSTEEGTSESATPESGPGTSTEPSEGSAPGSPAGSPTSTEEGTSTEPSEGSAPGTSTEPSEGSAPGTSESATPESGPGSEPATSGSETPGSEPATSGSETPGSPAGSPTSTEEGTSESATPESGPGTSTEPSEGSAPGTSTEPSEGSAPGSPAGSPTSTEEGTSTEPSEGSAPGTSTEPSEGSAPGTSESATPESGPGTSTEPSEGSAPGTSESATPESGPGSEPATSGSETPGTSTEPSEGSAPGTSTEPSEGSAPGTSESATPESGPGTSESATPESGPGSPAGSPTSTEEGTSESATPESGPGSEPATSGSETPGTSESATPESGPGTSTEPSEGSAPGTSTEPSEGSAPGTSTEPSEGSAPGTSTEPSEGSAPGTSTEPSEGSAPGTSTEPSEGSAPGSPAGSPTSTEEGTSTEPSEGSAPGTSESATPESGPGSEPATSGSETPGTSESATPESGPGSEPATSGSETPGTSESATPESGPGTSTEPSEGSAPGTSESATPESGPGSPAGSPTSTEEGSPAGSPTSTEEGSPAGSPTSTEEGTSESATPESGPGTSTEPSEGSAPGTSESATPESGPGSEPATSGSETPGTSESATPESGPGSEPATSGSETPGTSESATPESGPGTSTEPSEGSAPGSPAGSPTSTEEGTSESATPESGPGSEPATSGSETPGTSESATPESGPGSPAGSPTSTEEGSPAGSPTSTEEGTSTEPSEGSAPGTSESATPESGPGTSESATPESGPGTSESATPESGPGSEPATSGSETPGSEPATSGSETPGSPAGSPTSTEEGTSTEPSEGSAPGTSTEPSEGSAPGSEPATSGSETPGTSESATPESGPGTSTEPSEGSAPGHHHHHH
notes: Single chain: anti-EpCAM scFv, anti-CD3 scFv, release segment BSRS-1, XTEN864, His6; also called ProTIA-X
EC50, LDH release cytotoxicity, purified human CD3 positive T cells with OVCAR-3 cells 5:1 [7]: 0.0007 nM
EC50, LDH release cytotoxicity, purified human CD3 positive T cells with SK-OV-3 cells 5:1 [7]: 0.134 nM
